Patent US20250025561A1, “LIQUID COMPOSITIONS COMPRISING A PHOSPHORYLCHOLINE-TUFTSIN CONJUGATE” (Tarsier Pharma Ltd., priority 2021, published 2025)
*1 amine or outer side, *2 acyl side, *3 side chain or, on linkers, in order; H or OH if unused. Where a SMILES comes first, the peptide text is derived from it. [ ]: non-standard residue; d: D form. X1 = C[N+](C)(C)CCOP(=O)([O-])Oc1ccc(/N=N/c2cc(C[C@H](N[*:1])C(=O)[*:2])ccc2O)cc1; X2 = C[N+](C)(C)CCOP(=O)(O)Oc1ccc(/N=N\c2cc(CC(N[*:1])C(=O)[*:2])ccc2O)cc1; NMeT = CN[CH](C(=O)O)[CH](C)O

What was measured:
[1] = Biological activity (test not specified)
[2] = Chemical stability of the synthesized conjugates; type: physicochemical
Protocol: In brief, 50 mg of TRS was dissolved in 2.5 mL of water and 50 equivalents of acetaldehyde were added (at room temperature). Then, the pH was adjusted to 6.8. The solution was shaken over the weekend and analyzed by an analytical HPLC. […] The reaction mixture was purified by a preparative HPLC, to isolate the phosphorylcholine tuftsin conjugate of Formula 3A.
The phosphorylcholine tuftsin conjugate of Formula 3A was dissolved in 0.1% formic acid in water and the pH was adjusted to 2.7. After 30 min, the solution was lyophilized. The crude reaction mixture was purified by preparative HPLC to obtain the phosphorylcholine tuftsin conjugate of Formula 2A.

yeasts (S. cerevisiae) = test: Yeast fermentation activity (gas formation) in aqueous suspension with sucrose; type: cell-based; conditions: FIG. 2
Protocol: Yeast fermentation activity was correlated to the formation of bubbles within the aqueous suspension.
In brief, varying amount of 1% w/w solution of TRS was added to an aqueous suspension containing yeasts (S. cerevisiae) and a sufficient amount of sucrose, to obtain aqueous compositions containing 4 ppm, 20 ppm, 40 ppm, and 80 ppm of TRS. The gas formation (fermentation activity) of the aqueous suspension with TRS (hereinafter, “the sample”) was quantified by evaluating the volume of the released gas and compared to a similar aqueous yeast suspension devoid of TRS (hereinafter, “the control”).
Further, the phosphorylcholine tuftsin conjugate (PC) of Formula 2A synthesized as disclosed herein, has been tested to evaluate its antifungal activity. The inventors performed a similar experiment, as disclosed above, using varying concentrations of the phosphorylcholine tuftsin conjugate of Formula 2 (i.e. 6.7 ppm, 20 ppm, 40 ppm, and 80 ppm).

[3] = Solubility of drug substance in water; type: physicochemical
Protocol: Drug Substance [TRS]: is a trifluoroacetate [TFA] salt of phosphorylcholine-tuftsin conjugate represented by Formula 1 (as shown herein). Molecular formula: C43H68N13O13P, Appearance: Yellow to orange solid. Solubility: >40 mg/ml in water.

CC1NC([C@@H](C)O)C(=O)N1[C@@H](CCCCN)C(=O)N1CCCC1C(=O)N[C@@H](CCCNC(=N)N)CNCC(=O)N[C@@H](Cc1ccc(O)c(/N=N\c2ccc(OP(=O)(O)OCC[N+](C)(C)C)cc2)c1)C(=O)O (stereo partly shown) [Formula 2A]
biological activity [1]: solid biological activity
chemical stability [2]: sufficient chemical stability

CC(O)C1NC(C)N(C(CCCCN)C(=O)N2CCCC2C(=O)NC(CCCNC(=N)N)C(=O)NCC(=O)NC(Cc2ccc(O)c(N=Nc3ccc(OP(=O)(O)OCC[N+](C)(C)C)cc3)c2)C(=O)O)C1=O (stereo not shown) [Formula 2]
yeast activity vs control (yeasts (S. cerevisiae); 80 ppm): almost completely eliminated
yeast activity vs control (yeasts (S. cerevisiae); lowest concentration of about 7 ppm (6.7 ppm)): significant reduction of the yeast activity

C/C=N/CCCC[C@@H](C(=O)N1CCCC1C(=O)N[C@@H](CCCNC(=N)N)CNCC(=O)N[C@@H](Cc1ccc(O)c(/N=N/c2ccc(OP(=O)(O)OCC[N+](C)(C)C)cc2)c1)C(=O)O)N1C(=O)C([C@@H](C)O)NC1C (stereo partly shown) [Formula 3A]
hydrolysis (converted into PC of Formula 2A) ([2]; at acidic pH): undergoes hydrolysis

CNC(C(=O)NC(CCCCN)C(=O)N1CCCC1C(=O)NC(CCCNC(=N)N)C(=O)NCC(=O)NC(Cc1ccc(O)c(/N=N\c2ccc(OP(=O)(O)OCC[N+](C)(C)C)cc2)c1)C(=O)O)C(C)O (stereo not shown) [Formula 5] (H-[NMeT]KPRG[X2]-OH; configuration not given here)
chemical stability as compared to PC of Formula 2 [2]: reduced chemical stability

C[C@@H](O)[C@H](N)C(=O)N[C@@H](CCCCN)C(=O)N1CCC[C@H]1C(=O)N[C@@H](CCCNC(=N)N)C(=O)NCC(=O)N[C@@H](Cc1ccc(O)c(/N=N/c2ccc(OP(=O)([O-])OCC[N+](C)(C)C)cc2)c1)C(=O)O [TRS] (H-TKPRG[X1]-OH)
solubility [3]: > 40 mg/mL
